The values below come from PMC10812545, “The Binding of HSPA8 and Mitochondrial ALDH2 Mediates Oxygen-Glucose Deprivation-Induced Fibroblast Senescence” (Antioxidants, 2023).

“And” between values parts separate entries of the source, which are not always exact repeats. Identical values can stand only once.

What is called stoichiometry N is a count of units in the complex or per binding partner.

The series deals with the molecule itself. The experiment in a line: cross-linking; DSS 500 μM, 30 min at room temperature, quenched with 10 mM Tris; NIH3T3 cells (CON, OGD, siHSPA8); Western blot for ALDH2. For orientation: In western blotting, separated proteins are transferred to a membrane and probed.

B1: Aldehyde dehydrogenase 2 (ALDH2) (enzyme, mouse (endogenous in NIH3T3), UniProt P47738 20-519, looked up)
chain: SAAATSAVPAPNHQPEVFCNQIFINNEWHDAVSRKTFPTVNPSTGEVICQVAEGNKEDVDKAVKAARAAFQLGSPWRRMDASDRGRLLYRLADLIERDRTYLAALETLDNGKPYVISYLVDLDMVLKCLRYYAGWADKYHGKTIPIDGDFFSYTRHEPVGVCGQIIPWNFPLLMQAWKLGPALATGNVVVMKVAEQTPLTALYVANLIKEAGFPPGVVNIVPGFGPTAGAAIASHEGVDKVAFTGSTEVGHLIQVAAGSSNLKRVTLELGGKSPNIIMSDADMDWAVEQAHFALFFNQGQCCCAGSRTFVQENVYDEFVERSVARAKSRVVGNPFDSRTEQGPQVDETQFKKILGYIKSGQQEGAKLLCGGGAAADRGYFIQPTVFGDVKDGMTIAKEEIFGPVMQILKFKTIEEVVGRANDSKYGLAAAVFTKDLDKANYLSQALQAGTVWINCYDVFGAQSPFGGYKMSGSGRELGEYGLQAYTEVKTVTVKVPQKNS
notes: Aldehyde dehydrogenase 2, mitochondrial, endogenous in the mouse fibroblast line NIH3T3; Seen as dimer and tetramer after DSS cross-linking; also called mitochondrial ALDH2; mitochondrial aldehyde dehydrogenase; source: endogenous, NIH3T3 lysate
In the case of B1, the “stoichiometry N” value is 2 and 4.
